Data on 5 molecules can be found in doi:10.1101/2022.04.19.488791 (bioRxiv, 2022).

Where two headings read alike, the source gives them in different places.

What all share (assay): cryo-EM structure
Experiment [1] has as its target T1, Slh1 helicase subunit of the ribosome quality control trigger complex RQT (wild type) (yeast, UniProt P53327 1-1967).
Experiment [2] has as its target Slh1-K316R, ATPase-deficient Slh1 subunit of K316R-RQT (yeast, UniProt P53327 1-1967, K316R).
Experiment [3] has as its target T1, Slh1 helicase subunit of the ribosome …. This is another data set of the same source.

T1 sequence (P53327 whole entry, one chain of several): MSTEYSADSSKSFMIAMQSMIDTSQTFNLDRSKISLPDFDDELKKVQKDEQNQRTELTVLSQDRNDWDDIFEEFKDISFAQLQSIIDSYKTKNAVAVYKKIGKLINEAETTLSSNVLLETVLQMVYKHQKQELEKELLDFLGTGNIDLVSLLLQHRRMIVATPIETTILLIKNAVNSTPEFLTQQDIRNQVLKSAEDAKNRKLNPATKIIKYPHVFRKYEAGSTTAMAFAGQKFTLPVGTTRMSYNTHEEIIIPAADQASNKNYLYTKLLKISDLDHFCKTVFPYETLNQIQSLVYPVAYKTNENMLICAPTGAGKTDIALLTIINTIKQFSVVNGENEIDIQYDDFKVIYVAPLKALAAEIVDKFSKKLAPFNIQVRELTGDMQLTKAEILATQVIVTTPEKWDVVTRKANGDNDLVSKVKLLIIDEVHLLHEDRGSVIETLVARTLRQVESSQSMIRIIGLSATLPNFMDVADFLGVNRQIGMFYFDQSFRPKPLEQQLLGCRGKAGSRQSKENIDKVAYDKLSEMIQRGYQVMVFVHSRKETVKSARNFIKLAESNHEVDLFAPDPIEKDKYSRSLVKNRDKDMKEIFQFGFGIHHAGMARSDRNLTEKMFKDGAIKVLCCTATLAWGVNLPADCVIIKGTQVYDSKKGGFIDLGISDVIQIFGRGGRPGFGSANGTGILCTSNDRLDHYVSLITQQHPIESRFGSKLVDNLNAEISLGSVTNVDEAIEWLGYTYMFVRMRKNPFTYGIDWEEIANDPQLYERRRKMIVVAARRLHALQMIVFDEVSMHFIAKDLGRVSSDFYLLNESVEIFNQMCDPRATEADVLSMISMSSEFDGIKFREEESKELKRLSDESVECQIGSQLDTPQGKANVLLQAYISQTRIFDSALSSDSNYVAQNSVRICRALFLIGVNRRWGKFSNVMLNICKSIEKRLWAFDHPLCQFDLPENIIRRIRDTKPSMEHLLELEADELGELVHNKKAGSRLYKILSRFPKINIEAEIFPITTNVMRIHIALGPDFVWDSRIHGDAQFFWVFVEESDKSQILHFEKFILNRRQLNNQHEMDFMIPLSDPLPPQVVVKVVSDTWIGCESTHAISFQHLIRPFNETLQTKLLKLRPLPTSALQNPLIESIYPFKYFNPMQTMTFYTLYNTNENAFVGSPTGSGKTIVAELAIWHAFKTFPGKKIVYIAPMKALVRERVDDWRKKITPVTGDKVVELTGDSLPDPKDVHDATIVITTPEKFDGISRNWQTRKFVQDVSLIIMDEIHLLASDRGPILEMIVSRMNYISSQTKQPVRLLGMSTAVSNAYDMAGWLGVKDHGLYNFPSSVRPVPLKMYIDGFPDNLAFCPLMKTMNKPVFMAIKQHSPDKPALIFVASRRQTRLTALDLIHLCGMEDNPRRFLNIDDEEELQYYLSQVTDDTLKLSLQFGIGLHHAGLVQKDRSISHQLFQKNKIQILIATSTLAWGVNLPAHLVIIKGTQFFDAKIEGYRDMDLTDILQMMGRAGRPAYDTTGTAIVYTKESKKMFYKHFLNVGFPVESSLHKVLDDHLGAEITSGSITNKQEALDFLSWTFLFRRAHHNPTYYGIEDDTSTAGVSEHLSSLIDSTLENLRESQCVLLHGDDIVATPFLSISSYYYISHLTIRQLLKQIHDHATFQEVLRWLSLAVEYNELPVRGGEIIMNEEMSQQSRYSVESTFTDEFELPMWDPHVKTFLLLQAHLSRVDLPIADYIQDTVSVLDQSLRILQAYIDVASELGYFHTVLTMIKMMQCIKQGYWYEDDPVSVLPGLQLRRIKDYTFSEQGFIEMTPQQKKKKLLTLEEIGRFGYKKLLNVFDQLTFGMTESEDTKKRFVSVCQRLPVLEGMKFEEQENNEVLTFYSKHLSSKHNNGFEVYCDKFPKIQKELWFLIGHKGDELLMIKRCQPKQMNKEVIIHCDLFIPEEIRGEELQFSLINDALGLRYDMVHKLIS
Slh1-K316R, ATPase-deficient Slh1 subunit of K316R-RQT, sequence (P53327 whole entry K316R): as the sequence (P53327 whole entry, one chain of several) above, with K316R counted along it

B1: Cue3, ubiquitin-binding CUE domain containing subunit of RQT (natural protein, yeast, UniProt P53137 1-624, looked up)
chain: MLSRYNRVIEINGGNADISLPIVKFPPFKLRAQLIEKDPVVWLHLIETYVTYFEYLMQGANVELLDESTLDHLRLFLRTYLHEIADEEGKLLSLGINHDVSEQLYLLKGWIFSLIKKCGLLHLQIFGDSLWNLIKVYVRRNPDSIRGLIDGSLKPRINTQRVQLDKSYQVQQHLKQLIESGKFKRIDLRCVEDLLSAKSMQPNKFAENFFTANWIEILEALWAKGQGRGHKEARELIIISLFSVSADRLLKITKELGISNFETLALYPLLGTMLINEGVHKRLPDLKSKLLFLNLGGLSMDEGDHMSYPTSSGTEVNEEQLSALMELFPQFSKYQLSQTLLAYDNNIELVTNKIFEDPTIIEAFSREPAEEEVEPVSDGDNASFTEELSILDRGDSSKNKELDKKIISEGVPDELRNKTLTRALKLLYEADEDERDDTYDEADVNRSDPSKRIGLQEDEESYDTKDDSNEVRQDHNYHIVEAYLWNLLKEDPKLFERSKRGTKVRKTMKEMTSWSDEKIEGWCRMLERSPTRARLLEKKFMFKGNSKTGKTSYVHNRDSQNDGNVVKEQAKQKKSENIKKHEPQSTEQKKRQHAKNEKRKGARANHNRKKGHDKKLARAGNNAI
For B1, the binding result in experiment [1] and in experiment [2] was “binds” in each case.

B2: RACK1 (Asc1) of the 40S head (natural protein, UniProt P38011 1-319, looked up)
chain: MASNEVLVLRGTLEGHNGWVTSLATSAGQPNLLLSASRDKTLISWKLTGDDQKFGVPVRSFKGHSHIVQDCTLTADGAYALSASWDKTLRLWDVATGETYQRFVGHKSDVMSVDIDKKASMIISGSRDKTIKVWTIKGQCLATLLGHNDWVSQVRVVPNEKADDDSVTIISAGNDKMVKAWNLNQFQIEADFIGHNSNINTLTASPDGTLIASAGKDGEIMLWNLAAKKAMYTLSAQDEVFSLAFSPNRYWLAAATATGIKVFSLDPQYLVDDLRPEFAGYSKAAEPHAVSLAWSADGQTLFAGYTDNVIRVWQVMTAN
Turning to B2, in experiment [3], the binding result was “binds”.

B3: Rqt4, zinc-finger containing subunit of RQT (natural protein, yeast, UniProt P36119 1-530, looked up)
chain: MTRKQAIDYAIKQVPQILPLEESDVKALCEQVLSTSSDDPEQIASKFLEFLGHEDLSFEFVMKFNELLNQNDKKEEKKTKNVHLEHTAPTSWKNESKQPTNNYINKKGDEKPKKLKDEKKSSTTRPTVQPSNQSTQSNPIKEKKEHRSKGKLQSLQEIDEAIKMLELRDSGSSKNCNCQGTRHPVFDIAPNCLHCGKVVCVIEGLNKGKCGHCHEQLISDNERTQMVEILNQEKNELNGSSSSLSNASNGANVPKKKTKTYKITSGMGKNLFAEQDKLFDFIERKRERERKRNEVLKLQEEKEESEAKERQASEHDHKAEENPELLAAQERLDRLLYFQDTSAERTKIIDNASDFDMNQEVGLWGSARERALALKKQQRNLRKWEKVEKERNGRREKYVVSMNIGSNGKVTMTEVPKDTENVIAGSDDDISDISDEEDISDLKHIHALKSEINTTKSLENLHLQSKAWDYERDKKQFDRPTYVKKNSDTAQQNRKTEEKAHDMQAYDLKSRVQVDQNADASVEQNILAVL
Consider B3, for which the binding result in experiment [1] and in experiment [2] was “binds” throughout.

B4: ribosomal protein uS3 of the 40S subunit (natural protein, UniProt P05750 1-240, looked up)
chain: MVALISKKRKLVADGVFYAELNEFFTRELAEEGYSGVEVRVTPTKTEVIIRATRTQDVLGENGRRINELTLLVQKRFKYAPGTIVLYAERVQDRGLSAVAQAESMKFKLLNGLAIRRAAYGVVRYVMESGAKGCEVVVSGKLRAARAKAMKFADGFLIHSGQPVNDFIDTATRHVLMRQGVLGIKVKIMRDPAKSRTGPKALPDAVTIIEPKEEEPILAPSVKDYRPAEETEAQAEPVEA
Consider B4, for which the binding result in experiment [3] is “binds”.

B5: ribosomal protein uS5 of the 40S subunit (natural protein, UniProt P25443 1-254, looked up)
chain: MSAPEAQQQKRGGFGGRNRGRPNRRGPRNTEEKGWVPVTKLGRLVKAGKITTIEEIFLHSLPVKEFQIIDTLLPGLQDEVMNIKPVQKQTRAGQRTRFKAVVVVGDSNGHVGLGIKTAKEVAGAIRAGIIIAKLSVIPIRRGYWGTNLGQPHSLATKTTGKCGSVTVRLIPAPRGSGIVASPAVKKLLQLAGVEDVYTQSNGKTRTLENTLKAAFVAIGNTYGFLTPNLWAEQPLPVSPLDIYSDEASAQKKRF
Consider B5, for which the binding result in experiment [3] is given as “binds”.
